Reference: US9283300B2, “Use of midkine protein and the protein-containing medical device” (GENERAL REGENERATIVES, LTD, priority 2009, dated 2016)
Values joined by “and” are separate entries in the source; they are usually repeats but may differ in a detail not shown here. Equal entries are not always repeated.

Key:
Assay type in all cases: cell-based
[1] = system: rat fibrochondrocyte and articular chondrocyte; experiment: Phenotype of chondrocytes in monolayer culture (semi-quantitative PCR, collagen II immunohistochemical staining); settings: passages P0-P2, Col2a1/collagen II
Experimental: 3. Culture of primary chondrocytes in monolayer. Three types of primary chondrocytes were suspended in DMEM medium containing 10% FBS, adjusted to 5×10^4 cells/ml, added to 6-well plate with 2 ml medium/well, and incubated in 37° C. at 5% CO2. Experiment was divided into two groups: control group and experimental group (with 3 μg/ml rhMK). Cell medium was changed every two days. When the cells grew to the confluence of 85% to 90%, the cells were collected by trypsin digestion, washed in PBS by centrifugation. The cells were resuspended in DMEM containing 10% FBS. Cell survival was monitored by trypan blue staining. Part of the cells were used for cell passage; some were for RNA extraction; some were cytospined onto a glass slide for later immunohistochemical staining and the slides were stored at −80° C. Primary cells or passage 0 (P0) were cultured for 7 days. The newly passaged cells were further cultured in a 6-well plate for 3 days which was then collected by trypsin-digestion and marked as passage P1. The cell amplification at each passage=total number of cells at output/total number of cells at initial input. 6. Immunohistochemical staining. […] RNA extraction and semi-quantitative PCR. […] PCR products were separated on 1.5% (w/v) agarose gels and quantified after staining with ethidium bromide in comparison with internal control gene expression of β-actin.

rat primary chondrocytes = experiment: Serum-free culture of chondrocytes; settings: for promotion of cell expansion over the control cultures without rhMK: serum-free medium after 24 h in DMEM with 10% FBS
Experimental: (§1) 1. Preparation of primary chondrocyte. The 8-week-old male SD rats were sacrificed under sterile conditions. The articular cartilage, fibrocartilage and elastic cartilage tissue were isolated from the femur joints, meniscus and outer ear respectively using a scalpel. The isolated cartilage were cut into small pieces, washed twice with phosphate buffered saline (PBS), and digested with trypsin (0.25% (w/v) trypsin/0.02% (w/v) EDTA) at 37° C. for 30 min. The articular cartilage and elastic cartilage were further digested with 0.2% type II collagenase for additional 16 h, and the fibrocartilage were further digested with 0.15% type I collagenase for additional 16 h. After digestion, three chondrocytes were passed through 100 μm filter (Falcon, USA) into 15 ml centrifuge tubes, centrifuged at room temperature at 2000 rpm for 5 min. Cells were resuspended in DMEM containing 10% FBS (fetal bovine serum). Trypan blue staining of the freshly isolated cells was used to monitor the percentage of live cells under the microscope. When the number of live cells is more than 95%, it was used for subsequent experiments.
4. Serum-free culture. The primary chondrocytes were cultured with DMEM containing 10% FBS for 24 h and washed with serum-free culture medium once. The cells were further cultured with DMEM medium with ITS+1 (composed of insulin-transferrin-selenium, Sigma, USA). […] Cell medium was changed every two days. When cells grew to the confluence of 85% to 90%, they were collected by trypsin-digestion and subcultured as previously described.

[2] = system: rat articular chondrocyte; experiment: Cell expansion in passaged monolayer culture
Experimental: as §1
(§2) 3. Culture of primary chondrocytes in monolayer. Three types of primary chondrocytes were suspended in DMEM medium containing 10% FBS, adjusted to 5×10^4 cells/ml, added to 6-well plate with 2 ml medium/well, and incubated in 37° C. at 5% CO2. Experiment was divided into two groups: control group and experimental group (with 3 μg/ml rhMK). Cell medium was changed every two days. When the cells grew to the confluence of 85% to 90%, the cells were collected by trypsin digestion, washed in PBS by centrifugation. The cells were resuspended in DMEM containing 10% FBS. Cell survival was monitored by trypan blue staining. Part of the cells were used for cell passage; some were for RNA extraction; some were cytospined onto a glass slide for later immunohistochemical staining and the slides were stored at −80° C. Primary cells or passage 0 (P0) were cultured for 7 days. The newly passaged cells were further cultured in a 6-well plate for 3 days which was then collected by trypsin-digestion and marked as passage P1. The cell amplification at each passage=total number of cells at output/total number of cells at initial input.

rat fibrochondrocyte = experiment: Cell expansion in passaged monolayer culture
Experimental: as §1, §2

[3] = system: rat auricular chondrocyte; experiment: Cell expansion in passaged monolayer culture
Experimental: as §1, §2

[4] = P0, rhMK 3 μg/ml versus no rhMK
[5] = P1, rhMK 3 μg/ml versus no rhMK
[6] = P2, rhMK 3 μg/ml versus no rhMK

B1: rhMK: recombinant human midkine mature protein (SEQ ID NO.1) expressed in E. coli and purified by ion-exchange chromatography (protein, listed as Homo sapiens)
chain: MKKKDKVKKGGPGSECAEWAWGPCTPSSKDCGVGFREGTCGAQTQRIRCRVPCNWKKEFGADCKYKFENWGACDGGTGTKVRQGTLKKARYNAQCQETIRVTKPCTPKTKAKAKAKKGKGKD
[1]
  effect on the phenotype of fibrochondrocyte and articular chondrocyte: no significant effect
Rat primary chondrocytes; passage 1
  promotion of cell expansion over the control cultures without rhMK: 34%
Rat primary chondrocytes; passage 2
  promotion of cell expansion over the control cultures without rhMK: 51%
Rat primary chondrocytes; passage 3
  promotion of cell expansion over the control cultures without rhMK: 18%
Rat primary chondrocytes; three types of chondrocytes cultured directly in serum-free medium, rhMK 3 μg/ml
  cell attachment and proliferation in serum-free medium: did not make the cell attachment and proliferation
[2]; P0, rhMK 3 μg/ml
  Cell expansion (in fold): 13.5 ± 1.2 fold
[2]; [4]
  Proliferation rate (%): 112%
[2]; P1, rhMK 3 μg/ml
  Cell expansion (in fold): 12.0 ± 1.4 fold
[2]; [5]
  Proliferation rate (%): 74%
[2]; P2, rhMK 3 μg/ml
  Cell expansion (in fold): 11.5 ± 0.5 fold
[2]; [6]
  Proliferation rate (%): 48%
Rat fibrochondrocyte; P0, rhMK 3 μg/ml
  Cell expansion (in fold): 5.3 ± 1.3 fold
Rat fibrochondrocyte; [4]
  Proliferation rate (%): 112% and 110%
Rat fibrochondrocyte; P1, rhMK 3 μg/ml
  Cell expansion (in fold): 28.1 ± 3.4 fold
Rat fibrochondrocyte; [5]
  Proliferation rate (%): 51%
Rat fibrochondrocyte; P2, rhMK 3 μg/ml
  Cell expansion (in fold): 20.9 ± 0.9 fold
Rat fibrochondrocyte; [6]
  Proliferation rate (%): 35%
[3]; P0, rhMK 3 μg/ml
  Cell expansion (in fold): 7.9 ± 0.1 fold
[3]; [4]
  Proliferation rate (%): 65%
[3]; P1, rhMK 3 μg/ml
  Cell expansion (in fold): 16.1 ± 1.1 fold
[3]; [5]
  Proliferation rate (%): 66%
[3]; P2, rhMK 3 μg/ml
  Cell expansion (in fold): 8.2 ± 1.0 fold
[3]; [6]
  Proliferation rate (%): 55%
